Data: patent publication US20230212319A1, “NOVEL ANTIGEN BINDING DOMAINS AND SYNTHETIC ANTIGEN RECEPTORS INCORPORATING THE SAME” (University of Southern California, priority 2020, published 2023)

What was measured:
Assay type in all cases: cell-based
[1] = tested on: target antigen-expressing cell line; test: Jurkat NFAT-GFP (JNG) assay: induction of NFAT promoter driven GFP expression; conditions: SAR-expressing JNG cells co-cultured with cell lines expressing their target antigen(s)
Experimental: Induction ofNFAT promoter driven GFP expression. […] Cellular supernatant is collected and assayed for the induction of cytokines (e.g., IL2).
Cellular supernatant is collected and assayed for the induction of cytokines (e.g., IL2).
JNG (Jurkat cells expressing EGFP under an NFAT promoter) were infected with lentiviral vectors encoding different single chain and multi-chain SARs by spinfection in the presence of 8 µg/ml of Polybrene® (Sigma, Catalog no. H9268). The Jurkat-NFAT-GFP cells are engineered in such a way that the IL-2 promoter, which carries NFAT binding sites, is cloned upstream of the GFP gene. These cells have been used to study signaling via TCR and CAR. The different SARs were stably expressed in Jurkat NFAT-GFP cells by lentiviral mediated gene transfer, followed by selection with puromycin or blasticidin. No drug selection was used in case the construct lacked an antibiotic resistance gene. The SAR-expressing Jurkat-NFAT-GFP cells were cocultured with the target cells at E:T ratio of approximately 1:2 for approximately 4 hours to 18 hours. When the interaction between SIRs and their target antigen results in activation of the NFAT pathway, GFP expression is induced. […] GFP expression was monitored by FACS analysis. The Jurkat-NFAT-GFP (parental) cells were used as control. The structure of different constructs can be determined based on their names. […] The sequence of the other constructs in the table can be similarly determined from their names and by referring to the different Tables of this disclosure that provide the names and SEQ ID NO of the different modules. Alternatively, the composition and modular architecture of the different SAR constructs can be determined from their sequences by bioinformatics tools, including using nucleic acid and amino acids homology searches. A SAR is considered positive in the assay in case the SAR expressing Jurkat-NFAT-GFP cells show greater % GFP positive cells when cultured with the target cell line as compared to parental Jurkat-NFAT-GFP cells. […] In general, the number +/-, +, 2+, 3+, 4+, 5+ refer to approximately 5%, 10%, 20%, 30%, 40% and 50% GFP positive cells. The % of GFP induction in the above assay is dependent not only the relative strength of the SAR but also, among other factors, on the relative level of expression of the SAR in the JNG cells and the relative level of expression of the target antigen in the target cell line. To control for the difference in gene transduction efficiency of the different SAR constructs, the experiment was conducted with JNG cells transduced with SAR constructs co-expressing a drug resistance gene (e.g., puromycin or PAC) followed by drug selection to generate a stable population of SAR-expressing cells. It is to be noted that the drug resistance gene (e.g., PAC) in the SAR constructs is optional and in vivo studies were conducted with SAR constructs lacking the PAC gene.

RAJI cells = test: JNG assay, co-culture with RAJI cells; conditions: co-culture with RAJI cells
How it was run: (§1)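 Jurkat-NFAT-GFP (JNG) cells stably expressing SAR constructs via lentiviral transduction and puromycin/blasticidin selection were cocultured with target cells at E:T ~1:2 for ~4–18 h. NFAT-driven GFP was measured by FACS versus parental JNG cells; scores +/- to 5+ denote ~5–50% GFP-positive cells.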

RAJI-CD19-KO cells = test: JNG assay, co-culture with RAJI-CD19-KO cells; conditions: co-culture with RAJI-CD19-KO cells
How it was run: as §1

B1: SEQ ID NO: 22096: FHVH attached to TCRg-6MD via IgCL linker and second FHVH attached to TCRd-6MD via IgG1-CH1 linker (protein)
chain: MALPVTALLLPLALLLHAARPQLQLQESGPGLVKPSETLSLTCTVSGDSISSGDYYWGWIRQPPGKGLEWIGHIYYSGVTYYNPSLKSRVTISVDTSRNQFSLKLSSVTAADTAVYYCTREDSSNWRSRGQGTLVTVSSLEGQPKANPTVTLFPPSSEELQANKATLVCLISDFYPGAVTVAWKADGSPVKAGVETTKPSKQSNNKYAASSYLSLTPEQWKSHRSYSCQVTHEGSTVEKTVAPTECSPIKTDVITMDPKDNCSKDANDTLLLQLTNTSAYYMYLLLLLKSVVYFAIITCCLLRRTAFCCNGEKSRAKRSGSGATNFSLLKQAGDVEENPGPTSMDWIWRILFLVGAATGAHSFEVQLLESGGGLIQPGGSLRLSCAASGFTFSSHAMTWVRQAPGKGLEWVSAISGSGDYTHYADSVKGRFTISRDNSKNTVYLQMNSLRAEDSAVYYCAKDEDGGSLLGHRGQGTLVTVSSTRASTKGPSVFPLAPSSKSTSGGTAALGCLVKDYFPEPVTVSWNSGALTSGVHTFPAVLQSSGLYSLSSVVTVPSSSLGTQTYICNVNHKPSNTKVDKRVEPKSCEVKTDSTDHVKPKETENTKQPSKSCHKPKAIVHTEKVNMMSLTVLGLRMLFAKTVAVNFLLTAKLFFLRAKRSGSGVKQTLNFDLLKLAGDVESNPGPSRGHMTEYKPTVRLATRDDVPRAVRTLAAAFADYPATRHTVDPDRHIERVTELQELFLTRVGLDIGKVWVADDGAAVAVWTTPESVEAGAVFAEIGPRMAELSGSRLAAQQQMEGLLAPHRPKEPAWFLATVGVSPDHQGKGLGSAVVLPGVEAAERAGVPAFLETSAPRNLPFYERLGFTVTADVEVPEGPRTWCMTRKPGA
GFP induction / activity in JNG assay [1]: best activity

B2: CD8SP-BCMA-FHVH-93-G4S-CD19-MOR0028-scFv-hCD8TM-BBZ-T2A-PAC (protein)
chain: MALPVTALLLPLALLLHAARPACEVQLLESGGGLIQPGGSLRLSCAASGFTFSSHAMTWVRQAPGKGLEWVSAISGSGDYTHYADSVKGRFTISRDNSKNTVYLQMNSLRAEDSAVYYCAKDEDGGSLLGHRGQGTLVTVSSGTGGGGSGGGGSGGGGSEFINIYNAEPANPSEKNSPEFDIVMTQSPATLSLSPGERATLSCRSSKSLQNVNGNTYLYWFQQKPGQSPQLLIYRMSNLNSGVPDRFSGSGSGTEFTLTISSLEPEDFAVYYCMQHLEYPITFGAGTKLEIKGGGGSGGGGSGGGGSEVQLVESGGGLVKPGGSLKLSCAASGYTFTSYVMHWVRQAPGKGLEWIGYINPYNDGTKYNEKFQGRVTISSDKSISTAYMELSSLRSEDTAMYYCARGTYYYGTRVFDYWGQGTLVTVSSTRTTTPAPRPPTPAPTIASQPLSLRPEACRPAAGGAVHTRGLDFACDIYIWAPLAGTCGVLLLSLVITLYCKRGRKKLLYIFKQPFMRPVQTTQEEDGCSCRFPEEEEGGCELRVKFSRSADAPAYQQGQNQLYNELNLGRREEYDVLDKRRGRDPEMGGKPRRKNPQEGLYNELQKDKMAEAYSEIGMKGERRRGKGHDGLYQGLSTATKDTYDALHMQALPPRSSGSGEGRGSLLTCGDVEENPGPHMTEYKPTVRLATRDDVPRAVRTLAAAFADYPATRHTVDPDRHIERVTELQELFLTRVGLDIGKVWVADDGAAVAVWTTPESVEAGAVFAEIGPRMAELSGSRLAAQQQMEGLLAPHRPKEPAWFLATVGVSPDHQGKGLGSAVVLPGVEAAERAGVPAFLETSAPRNLPFYERLGFTVTADVEVPEGPRTWCMTRKPGA
GFP induction / activity (RAJI cells): effective GFP induction
GFP induction / activity (RAJI-CD19-KO cells): effective GFP induction
GFP induction / activity in JNG assay [1]: effective GFP induction

B3: SEQ ID NO: 22098: FHVH attached to TCRg-6MD via IgCL linker and second FHVH attached to TCRd-6MD via IgG1-CH1 linker (protein)
chain: MALPVTALLLPLALLLHAARPQVQLVESGGGLVQPGGSLRLSCAASGFTFTNHAMSWVRQAPGKGLELVSSISGNGRTTYYADSVKGRFTISRDISKNTLDLQMNSLRAEDTAVYYCAKDGGETLVDSRGQGTLVTVSSLEGQPKANPTVTLFPPSSEELQANKATLVCLISDFYPGAVTVAWKADGSPVKAGVETTKPSKQSNNKYAASSYLSLTPEQWKSHRSYSCQVTHEGSTVEKTVAPTECSPIKTDVITMDPKDNCSKDANDTLLLQLTNTSAYYMYLLLLLKSVVYFAIITCCLLRRTAFCCNGEKSRAKRSGSGATNFSLLKQAGDVEENPGPTSMDWIWRILFLVGAATGAHSFEEVQLLESGGGLVQPGGSLRLSCAASGFTFSSYAMSWVRQAPGKGLEWVSSISGSGDYIYYADSVKGRFTISRDISKNTLYLQMNSLRAEDTAVYYCAKEGTGANSSLADYRGQGTLVTVSSTRASTKGPSVFPLAPSSKSTSGGTAALGCLVKDYFPEPVTVSWNSGALTSGVHTFPAVLQSSGLYSLSSVVTVPSSSLGTQTYICNVNHKPSNTKVDKRVEPKSCEVKTDSTDHVKPKETENTKQPSKSCHKPKAIVHTEKVNMMSLTVLGLRMLFAKTVAVNFLLTAKLFFLRAKRSGSGVKQTLNFDLLKLAGDVESNPGPSRGHMTEYKPTVRLATRDDVPRAVRTLAAAFADYPATRHTVDPDRHIERVTELQELFLTRVGLDIGKVWVADDGAAVAVWTTPESVEAGAVFAEIGPRMAELSGSRLAAQQQMEGLLAPHRPKEPAWFLATVGVSPDHQGKGLGSAVVLPGVEAAERAGVPAFLETSAPRNLPFYERLGFTVTADVEVPEGPRTWCMTRKPGA
GFP induction / activity in JNG assay [1]: best activity

B4: SEQ ID NO: 22099: FHVH attached to TCRa-wt2-opt-6MD via IgCL linker and second FHVH attached to TCRb-wt2-opt-6MD via IgG1-CH1 linker (protein)
chain: MALPVTALLLPLALLLHAARPQVQLVESGGGLVQPGGSLRLSCAASGFTFTNHAMSWVRQAPGKGLELVSSISGNGRTTYYADSVKGRFTISRDISKNTLDLQMNSLRAEDTAVYYCAKDGGETLVDSRGQGTLVTVSSLEGQPKANPTVTLFPPSSEELQANKATLVCLISDFYPGAVTVAWKADGSPVKAGVETTKPSKQSNNKYAASSYLSLTPEQWKSHRSYSCQVTHEGSTVEKTVAPTECSGRADCGFTSESYQQGVLSATILYEILLGKATLYAVLVSALVLMAMVKRKDSRGRAKRSGSGATNFSLLKQAGDVEENPGPTSMDWIWRILFLVGAATGAHSFEEVQLLESGGGLVQPGGSLRLSCAASGFTFSSYAMSWVRQAPGKGLEWVSSISGSGDYIYYADSVKGRFTISRDISKNTLYLQMNSLRAEDTAVYYCAKEGTGANSSLADYRGQGTLVTVSSTRASTKGPSVFPLAPSSKSTSGGTAALGCLVKDYFPEPVTVSWNSGALTSGVHTFPAVLQSSGLYSLSSVVTVPSSSLGTQTYICNVNHKPSNTKVDKRVEPKSCIPEDTFFPSPESSCDVKLVEKSFETDTNLNFQNLSVIGFRILLLKVAGFNLLMTLRLWSSRAKRSGSGVKQTLNFDLLKLAGDVESNPGPSRGHMTEYKPTVRLATRDDVPRAVRTLAAAFADYPATRHTVDPDRHIERVTELQELFLTRVGLDIGKVWVADDGAAVAVWTTPESVEAGAVFAEIGPRMAELSGSRLAAQQQMEGLLAPHRPKEPAWFLATVGVSPDHQGKGLGSAVVLPGVEAAERAGVPAFLETSAPRNLPFYERLGFTVTADVEVPEGPRTWCMTRKPGA
GFP induction / activity in JNG assay [1]: good activity
